Reference: the RNAGym collection of RNA variant scans (doi:10.7554/elife.80360)

B1: HDV Ribozyme (parent)
chain: GGCCGGCAUGGUCCCAGCCUCCUCGCUGGCGCCGGCUGGGCAACAUUCCGAGGGGACCGUCCCCUCGGUAAUGGCGAAUGGGACCCA

Variants of: B1
Assay: self-cleavage, relative activity (ratio to wild type); higher = more cleavage; co-transcriptional

Variant | self-cleavage
A51G C85A | 0.673
G50C U60C | 1.13
C49U G59C | 0.799
C49U G59U | 0.858
C49U G59A | 0.935
G50A A51U | 0.763
G50A A51C | 0.991
G50U G81A | 0.609
G50U G81C | 0.479
G50U G81U | 0.341
G50C A70G | 0.917
G50C A70C | 0.517
G50C A70U | 0.8
C49U G50A | 1.05
C49U G50C | 0.991
G50U C66U | 1.09
G50U C66A | 0.901
G50U G82C | 0.435
A51G G52C | 0.789
G50U G76A | 1.05
G50A U60C | 0.945
G50A U60G | 0.514
A51C C64A | 0.764
A51G A83U | 0.356

Variant | self-cleavage
A51G A83G | 0.916
G50C G73C | 0.601
G50C G73U | 0.246
G50A A77C | 0.227
C49U G53A | 0.916
C49U G53C | 1.05
G50U A70G | 0.846
G50U A70C | 0.795
A51C C66U | 0.974
A51U C75G | 0.344
A51U C75A | 0.123
G50U C85G | 0.872
A51C C62U | 1.08
G50U C57U | 1.17
G50U C57G | 0.986
G50U C57A | 0.911
A51G G59A | 0.787
A51G G67C | 0.864
A51G G67A | 0.831
G50U C86U | 0.751
G50A C58U | 0.919
G50A C58G | 0.909
G50A C58A | 1.12
A51C G54U | 0.659

Variant | self-cleavage
A51C G54A | 0.716
C49U U72G | 0.745
C49U U72A | 0.965
C49U U72C | 0.554
G50U G59C | 1.14
G50U G59A | 0.852
A51C A77C | 0.266
A51G U69C | 0.9
A51G U69A | 1.11
A51G U69G | 1.09
G50U A78G | 0.776
G50U A78C | 0.373
A51U C63A | 0.911
G50C C57A | 1.04
A51C U65A | 1.04
A51C U65G | 0.937
C49U U79C | 0.47
C49U U79G | 0.688
G50C G59U | 0.932
G50C G59C | 1.16
A51G G54U | 1.07
A51G G54C | 1.37
A51G G54A | 0.831
A51G G73A | 0.864

Variant | self-cleavage
A51G G73U | 0.397
A51G G73C | 0.575
G50U U69A | 0.872
G50U U69G | 0.95
A51C U79G | 0.415
A51C U79A | 0.959
G50C U69C | 1.07
G50A C63A | 0.436
G50A C63G | 0.0475
G50C C61G | 0.578
G50C C61U | 0.749
A51U C62G | 0.131
A51U C62U | 1.09
G50C C86A | 0.929
G50C C86U | 0.748
G50C C86G | 0.944
A51C G80A | 0.345
G50U G55A | 1.11
G50U A71G | 0.78
G50U A71C | 0.435
C49U G52C | 0.866
C49U G52A | 0.96
G50C C62G | 0
G50C C62A | 0.475

Variant | self-cleavage
G50C C62U | 0.939
G50A G76C | 0.98
G50A G76A | 1.05
A51G A78G | 0.674
A51G A78C | 0.318
A51C G68U | 0.782
A51G G53U | 0.795
A51G G53C | 0.665
G50C A83U | 0.504
G50C A83G | 0.491
G50A U72C | 0.45
G50U G68C | 0.465
G50U G68A | 0.694
C49U G76U | 1.18
C49U G76A | 1.08
A51U A78C | 0.242
A51G G55A | 0.972
A51C G67A | 0.77
A51C G67U | 0.939
C49U C85U | 0.799
G50A G80C | 0.284
G50A G80A | 0.415
C49U G81C | 0.317
G50C A51U | 0.755

Variant | self-cleavage
G50C A51G | 1.07
G50U C58G | 0.89
G50U C58A | 0.997
G50U A83C | 0.375
A51G G68U | 0.831
G50A G82A | 0.614
G50A G82U | 0.364
A51U C66G | 0.816
G50U G73U | 0.402
G50A C64U | 1.26
G50A C64A | 0.479
G50A C64G | 0.404
A51G C66G | 0.989
A51G C66U | 0.89
A51G C66A | 0.889
G50C G53C | 0.18
A51C G81C | 0.193
A51C G81U | 0.38
C49U G54C | 0.856
C49U G54U | 0.87
G50A C62U | 0.926
A51U C61G | 0.831
A51U C61U | 0.781
A51U C61A | 0.938

Variant | self-cleavage
A51G C84U | 0.975
A51G C84G | 0.332
G50C C63U | 0.997
G50C C63A | 0.305
G50C C63G | 0.135
G50U G67C | 0.617
G50U G67A | 0.959
G50U A56C | 1.18
G50U A56G | 0.943
G50U A56U | 1.06
C49U G82A | 0.436
G50U C63A | 0.57
G50A G68U | 0.767
A51G G76U | 0.942
A51G C63U | 0.969
A51G C63G | 0.538
A51U C58U | 1.17
A51C G73U | 0.567
A51C G73C | 0.293
A51G A71C | 0.458
A51G A71U | 0.629
G50C G52C | 0.554
G50C G52U | 0.554
G50C G52A | 0.66

Variant | self-cleavage
A51C C57U | 0.969
G50U C61G | 0.67
G50U C61A | 0.986
G50U C61U | 0.59
G50U A77G | 0.639
A51G C64A | 0.47
A51C C85U | 0.898
A51C C85G | 0.831
A51C C85A | 0.755
A51G C57U | 0.85
G50C G80C | 0.0906
G50C G80U | 0.225
G50C C66G | 0.912
G50U C64U | 0.901
G50U C64A | 0.468
G50C C84U | 0.554
G50C C58A | 1
C49U U69C | 0.831
G50A C66A | 1.18
C49U U65A | 0.966
C49U G68C | 0.784
C49U G68A | 0.987
G50A A87U | 1.08
G50C C85A | 0.933

Variant | self-cleavage
G50A C75U | 0.178
G50A C75A | 0.178
G50A A70U | 1.05
G50A A70C | 0.763
G50A A70G | 0.763
A51G G80U | 0.229
A51G G80C | 0.141
A51C G52A | 1.04
A51C G52C | 0.332
A51C G52U | 0.601
A51U C57U | 0.801
A51U C57A | 0.814
A51G C75A | 0.17
A51G C75G | 0.128
G50C G74C | 0.196
G50C A77C | 0.302
A51G G81A | 0.285
A51G C86A | 1.16
C49U G74U | 0.507
G50A A83U | 0.486
G50A A83G | 0.99
A51C G55C | 0.7
A51C G55U | 0.944
C49U G80A | 0.4

Variant | self-cleavage
A51U C64U | 0.927
A51U C64A | 0.845
A51U C64G | 0.578
C49U C86A | 0.793
A51G A87U | 0.952
A51C C61A | 1.05
A51G A70C | 0.974
A51G A70U | 1.22
A51G C62A | 0.812
A51G C62G | 0.739
A51C A56C | 0.703
G50U G54C | 0.768
G50U G54A | 0.85
A51G U79G | 0.831
A51G U79A | 0.675
A51C C58U | 0.95
A51C C58A | 0.779
A51C C58G | 1.02
G50A G74U | 0.483
G50C C64U | 0.728
G50C C64G | 0.383
G50A G52C | 0.672
A51C G82C | 0.534
A51C G82A | 0.298

Variant | self-cleavage
A51C C75G | 0.415
G50A G55A | 0.783
A51U A56C | 0.851
A51U A77U | 0.815
A51U A77C | 0.453
G50A G53C | 0.759
G50A G53U | 0.727
G50A G53A | 0.803
A51U A71U | 1.01
G50A G54A | 0.726
G50C U79C | 0.554
G50C U79A | 0.739
G50C U79G | 0.723
G50U A51G | 0.956
A51G | 0.948
A51U | 0.981
A51C | 0.972
G50C A71U | 0.554
G50C A71C | 0.252
G50A G59U | 1.18
G50A G59A | 1.03
G50A U79G | 0.629
G50A U79A | 0.88
G50A U79C | 0.486

Variant | self-cleavage
G50C G81A | 0.443
G50U U72G | 0.415
G50U U72C | 0.487
G50U U72A | 0.554
A51G C61U | 0.889
A51G A77G | 1.02
A51C A71U | 0.892
A51C A71G | 0.918
G50C G54A | 0.369
G50U G74U | 0.427
A51C A87U | 0.881
A51C U69C | 0.931
A51C U69G | 1.15
A51C U69A | 1.13
A51C U60G | 0.95
G50A C61A | 0.875
C49U G55U | 0.909
G50C U72G | 0.415
G50C G68A | 0.563
A51C G76A | 1.08
G50A U65C | 0.769
G50A U65G | 0.95
G50U A87G | 0.927
G50U A87U | 0.85

Variant | self-cleavage
A51G G74U | 0.434
A51G G74A | 0.406
G50U U79G | 0.802
G50U U79A | 0.831
A51G A56G | 1.08
A51C A78G | 0.751
A51U A87C | 0.959
A51U A87G | 0.965
G50A C85A | 0.941
G50A C85U | 0.938
G50U U60A | 0.87
G50U U60C | 0.938
G50A A56U | 1.06
C49U G67U | 0.859
C49U G67A | 0.891
G50A U69A | 1.01
A51C G74A | 0.479
A51C G74U | 0.383
A51C G74C | 0.196
A51C C63U | 1.05
G50C C75U | 0.162
G50C C75A | 0.242
G50C C75G | 0
G50C G67C | 0.399

Variant | self-cleavage
G50C G67U | 0.795
G50C G67A | 0.565
G50U C62U | 0.95
G50U C62A | 0.602
G50U C62G | 0.344
A51G U60C | 0.931
A51G U60A | 0.852
G50C G76A | 0.915
G50C G76C | 1.08
A51C A83G | 0.673
A51C A83U | 0.609
C49U G73U | 0.509
G50U C75G | 0.277
G50U C75U | 0.13
G50U C75A | 0.0773
A51U A83U | 0.712
A51U A83C | 0.269
A51U A83G | 0.669
A51G C58A | 0.98
A51G C58U | 0.95
G50U G52A | 0.799
G50U G52U | 0.68
